Experimental data: patent US8962263B2, “Methods and compositions for detecting the activation state of multiple proteins in single cells” (The Board of Trustees of the Leland Stanford Junior …, priority 2001, dated 2015)
Read-outs that look alike come from different tables or passages of the source.

B1: ICAM-2: biochemically purified soluble human ICAM-2 protein from retrovirally transduced NIH3T3 cells; ICAM-2-FC fusion also used (protein, UniProt P13598 25-223, looked up)
extracellular domain: KVFEVHVRPKKLAVEPKGSLEVNCSTTCNQPEVGGLETSLDKILLDEQAQWKHYLVSNISHDTVLQCHFTCSGKQESMNSNVSVYQPPRQVILTLQPTLVAVGKSFTIECRVPTVEPLDSLTLFLFRGNETLHYETFGKAAPAPQEATATFNSTADREDGHRNFSCLAVLDLMSRGGNIFHKHSAPKMLEIYEPVSDSQ
modifications: extracellular domain
notes: biochemically purified soluble human ICAM-2 protein from retrovirally transduced NIH3T3 cells; ICAM-2-FC fusion also used

Experiments:
LFA-1 = LFA-1 activation by mAb24-Alexa633 staining, flow cytometry; format: cell-based, human; conditions: Jurkat cells, agents 10 μM 30 min, PMA 1 μg/ml, prior to ICAM-2 10 μg/ml 30 min
Method: A) Confocal microscopy of actin and microtubule architecture upon ICAM-2, stimulus (10, μg/ml, 30, min) in Jurkat cells. Actin was stained by phalloidin-alexa633, and tubulin by taxol-alexa546. Inserts display enlarged cell image of representative treatment B) Flow cytometric staining for actin and microtubules as described above. C) Left: Fluorescence topography analysis of ICAM-2-FITC (1 μg/ml, time as indicated) surface distribution. Intensity color gradient depicts high and low fluorescent intensity values. Right: Confocal microscopy of ICAM-2-FITC surface binding (10 μg/ml, 30, min) and anti-β2-alexa568, (clone CTB104). D) Staining for ICAM-2-FITC surface binding (fluorescence intensity) and surface distribution (fluorescence pulse) in cytochalisin D treated Jurkat cells at 37° C. and 4° C. by flow cytometry. E) Values for ICAM-2-FITC fluorescence intensity per time-of-flight per cell as described in text. F) Flow cytometric staining for LFA-1 activation by mAb24-alexa633. Stimuli as indicated (10, μM, 30, min), PMA (1, μg/ml) prior to ICAM-2, stimulation (10, μg/ml, 30, min). Staining was performed at 37° C. G) Mean fluorescence intensity (MFI) values of mAb24-633, and ICAM-2, cluster values, computed as described above, as a function of time.
Intracellular and extracellular staining was performed as described (Perez and Nolan, 2002). Intracellular probes for active kinases were made by conjugating phospho-specific antibodies to the ALEXA FLUOR® dye series as described and used in phospho-protein optimized conditions (Perez and Nolan, 2002). Kinetic analyses was performed by direct application of fixation buffer in time synchronized 96-wells maintained at 37° C. Intracellular actin and microtubule staining was performed using phalloidin-Alexa633 and taxol-Alexa546 dyes (Molecular Probes). Adhesion and clustering assays were performed using ICAM-2-FITC as described in text. LFA-1 activation was assessed by either mAb24-Alexa633 or mAb24-Alexa546 conjugate, surface stained at 37° C. Flow cytometry data are representative of 3 independent experiments of 10^6 cells/sample. 10-50,000 events were collected and manually calibrated on a FACSCalibur™ machine. Data plotted in bar graph format is expressed as geometric mean fluorescence intensity (MFI) and normalized for isotype controls. Log ratios are defined as the MFI of stimulus to the MFI of unstimulated cells. Data was analyzed using Flowjo™ software (Treestar).

cell surface LFA-1 = target: T1, cell surface LFA-1 (Homo sapiens, UniProt P20701); experiment: ICAM-2-FITC surface binding on Jurkat cells by flow cytometry (single cell binding measurements)
T1 construct: within the physiological context of cell surface LFA-1; endogenous in cells; host or cells: Jurkat T cells
T1 sequence (P20701 26-1170): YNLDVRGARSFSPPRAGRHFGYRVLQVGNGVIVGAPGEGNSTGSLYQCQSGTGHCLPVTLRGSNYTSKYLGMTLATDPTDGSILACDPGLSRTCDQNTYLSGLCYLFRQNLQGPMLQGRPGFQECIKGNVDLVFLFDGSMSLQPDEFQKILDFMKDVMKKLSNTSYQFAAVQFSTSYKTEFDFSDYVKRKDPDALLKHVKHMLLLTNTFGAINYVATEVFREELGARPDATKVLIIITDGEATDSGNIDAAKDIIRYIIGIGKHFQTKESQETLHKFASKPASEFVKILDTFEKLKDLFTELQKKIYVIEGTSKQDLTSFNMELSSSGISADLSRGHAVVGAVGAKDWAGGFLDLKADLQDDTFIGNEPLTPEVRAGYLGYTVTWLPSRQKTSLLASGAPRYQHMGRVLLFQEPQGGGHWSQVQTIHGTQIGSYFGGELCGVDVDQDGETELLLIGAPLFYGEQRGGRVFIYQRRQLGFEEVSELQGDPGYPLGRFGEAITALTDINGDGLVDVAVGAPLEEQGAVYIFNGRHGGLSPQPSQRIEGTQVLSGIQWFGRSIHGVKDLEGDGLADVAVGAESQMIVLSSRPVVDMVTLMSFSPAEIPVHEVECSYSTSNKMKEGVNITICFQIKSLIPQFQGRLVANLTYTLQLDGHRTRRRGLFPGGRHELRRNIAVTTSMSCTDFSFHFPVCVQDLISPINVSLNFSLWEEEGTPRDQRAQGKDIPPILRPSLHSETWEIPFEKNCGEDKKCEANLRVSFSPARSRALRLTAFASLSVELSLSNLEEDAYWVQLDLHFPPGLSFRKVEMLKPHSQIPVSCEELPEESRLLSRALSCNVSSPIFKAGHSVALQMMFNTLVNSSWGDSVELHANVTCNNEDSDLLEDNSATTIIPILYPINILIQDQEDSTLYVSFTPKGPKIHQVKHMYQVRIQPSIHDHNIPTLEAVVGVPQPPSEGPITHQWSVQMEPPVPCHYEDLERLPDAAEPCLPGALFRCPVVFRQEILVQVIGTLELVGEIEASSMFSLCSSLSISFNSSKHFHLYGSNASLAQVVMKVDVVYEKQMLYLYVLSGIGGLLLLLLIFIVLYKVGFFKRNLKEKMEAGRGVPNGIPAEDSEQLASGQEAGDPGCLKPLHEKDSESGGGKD
T1 sequence (P05107 23-769 partner): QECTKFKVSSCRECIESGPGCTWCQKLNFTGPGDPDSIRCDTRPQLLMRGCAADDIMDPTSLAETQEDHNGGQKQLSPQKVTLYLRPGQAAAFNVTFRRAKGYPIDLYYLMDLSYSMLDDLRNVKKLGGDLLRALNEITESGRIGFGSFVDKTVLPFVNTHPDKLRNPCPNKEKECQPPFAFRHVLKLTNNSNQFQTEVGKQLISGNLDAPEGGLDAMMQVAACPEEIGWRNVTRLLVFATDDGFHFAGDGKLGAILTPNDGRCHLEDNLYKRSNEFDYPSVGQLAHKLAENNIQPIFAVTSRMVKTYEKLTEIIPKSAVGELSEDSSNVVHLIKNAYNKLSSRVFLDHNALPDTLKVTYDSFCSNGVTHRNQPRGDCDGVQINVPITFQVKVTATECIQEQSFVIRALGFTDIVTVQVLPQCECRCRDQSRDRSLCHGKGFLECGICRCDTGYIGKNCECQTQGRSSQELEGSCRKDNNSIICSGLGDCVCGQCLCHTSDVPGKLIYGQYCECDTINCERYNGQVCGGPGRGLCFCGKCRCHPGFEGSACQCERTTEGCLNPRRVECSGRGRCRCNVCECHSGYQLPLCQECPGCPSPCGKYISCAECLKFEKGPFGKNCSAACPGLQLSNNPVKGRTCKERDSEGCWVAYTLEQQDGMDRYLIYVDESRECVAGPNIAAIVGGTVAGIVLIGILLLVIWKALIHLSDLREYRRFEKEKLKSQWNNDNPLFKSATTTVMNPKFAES
Method: A) Purified human ICAM-2, from retrovirally transduced NIH3T3, (see materials and methods) was tested for purity, size, and aggregate formation by native gel electrophoresis and gel filtration. Analysis of purified ICAM-2, from two different preps and ICAM2-FC from NSO cells. Molecular weight was calculated using relative distance migration from a molecular weight standard. Concentration was determined using serial dilutions of BSA as a standard. […] B) ICAM-2, ligand binding to cell surface as a function of time. 5×10^6, unstimulated and PMA stimulated (1, μg/ml, 30, min) Jurkat T cells were incubated with ICAM-2-FITC or LFA-1-FITC antibody (1, μg/ml) and subjected to time dependent flow cytometry. Mean fluorescence intensity was plotted per time of a gated homogenous cell population. Flow rate was maintained at 200-300, cells/second, with fluorescence intensity values acquired at 10, millisecond intervals for 1200, seconds. C) Flow cytometric analysis of ICAM-2-FITC and a-LFA-1-FITC surface binding on cytochalisin D treated (10, μM, 30, min) Jurkat cells at 37° C. and 4° C. D) Curve fit analysis of ICAM-2-FITC binding per 10^4, cells. Jurkat cells were incubated with ICAM-2-FITC at 37° C. for 30, min at indicated concentrations in 50, μL volume. Cells were washed 1×, and analyzed for mean fluorescent intensity (MFI) of 10^4, cells. Percent ICAM-2-FITC bound was calculated from the following equation: 100×[(MFI[×]−MFIunstained)/(MFI[saturated]−MFIunstained)] where [×]=ICAM-2-FITC concentration and [saturated]=concentration that saturated binding. Values were fit to the equation Y=m1*M0/(m2+M0) (see materials and methods).
Full length ICAM2 cDNA was obtained from Jurkat cells and cloned into retroviral vector PBM-Z-IN at the BamHI/Sal1 site as described (Perez et al., 2002). Human ICAM-2 was overexpressed in NIH3T3 cells by retroviral infection and harvested by immunoaffinity chromatography. ICAM-2 was affinity purified using a two step lysing procedure and subsequent purification on an anti-ICAM-2 solid support. […] Batch lysate of harvested supernatant was performed (4° C., for 2 hrs), and washed 4 times in buffer C (0.1% Tween-20, PBS pH 7.4). ICAM-2 protein was eluted by 4.5 M NaCl (in Tris pH 6.8), dialyzed overnight (in PBS pH 7.4, 0.001% azide, 0.01% glycerol, 4° C.), concentrated using size exclusion spin chromatography and stabilized using 0.01% glycerol. Anti-ICAM-2 solid support was re-equilibrated in buffer C, stored in 0.001% thimerosol and re-used up to 3 times. Purity was >98% as assessed by coomasie gel. […] Gel imaging was performed on a VersaDoc machine (Biorad) and analyzed using Quantity One quantitation software (Biorad). […]

Molecule	LFA-1 activation (mAb24 binding) (LFA-1)	ICAM-2 adhesion measured by binding of ICAM-2-FITC (cell surface LFA-1; PKC inhibitor treated cells)	LFA-1 activation (mAb24 binding) (LFA-1; listed as full length ICAM-2)	Kd (cell surface LFA-1; Jurkat cells, 37° C., 30 min, curve fit analysis, read-out: dissociation constant of ICAM-2-FITC binding) [nM]	Kd (cell surface LFA-1; per 10^4 cells, read-out: calculated ICAM-2 affinity) [nM]
CN(C)CCCn1cc(C2=C(c3c[nH]c4ccccc34)C(=O)NC2=O)c2ccccc21 [bisindolymaleimide I]	inhibited ICAM-2 induced LFA-1 activation	not affected	–	–	–
B1	bimodal population in active LFA-1	–	resulted in active LFA-1	210 ± 70	217 ± 66
